According to patent publication CN117062835A (ONCORIS PONS, dated 2023):

Experiments:
[1] = target: T1, 加His标签的重组人类CD163(R&D Systems，编号1607-CD-050)蛋白 (human, UniProt Q86VB7 46-1050); assay: ELISA EC50 ratio; upper end of the range, tied to V1 through the lowest EC50 of Table 7
T1 construct: Bought recombinant protein coated on ELISA plates; also called 重组CD163蛋白; huCD163; not shown: His tag

[2] = target: T2, 人类CD163蛋白(生物素化) (human, UniProt Q86VB7 46-1050, limits assumed, biotinylated (sites not given)); assay: BLI, b-huCD163 on SA biosensor, four antibody concentrations
T2 construct: also called b-huCD163; 生物素标记的人类CD163

[3] = target: T1, 加His标签的重组人类CD163(R&D …); assay: ELISA EC50 ratio; lower end of the range, tied to V4 through the highest EC50 of Table 7

T1 sequence (Q86VB7 46-1050 limits assumed): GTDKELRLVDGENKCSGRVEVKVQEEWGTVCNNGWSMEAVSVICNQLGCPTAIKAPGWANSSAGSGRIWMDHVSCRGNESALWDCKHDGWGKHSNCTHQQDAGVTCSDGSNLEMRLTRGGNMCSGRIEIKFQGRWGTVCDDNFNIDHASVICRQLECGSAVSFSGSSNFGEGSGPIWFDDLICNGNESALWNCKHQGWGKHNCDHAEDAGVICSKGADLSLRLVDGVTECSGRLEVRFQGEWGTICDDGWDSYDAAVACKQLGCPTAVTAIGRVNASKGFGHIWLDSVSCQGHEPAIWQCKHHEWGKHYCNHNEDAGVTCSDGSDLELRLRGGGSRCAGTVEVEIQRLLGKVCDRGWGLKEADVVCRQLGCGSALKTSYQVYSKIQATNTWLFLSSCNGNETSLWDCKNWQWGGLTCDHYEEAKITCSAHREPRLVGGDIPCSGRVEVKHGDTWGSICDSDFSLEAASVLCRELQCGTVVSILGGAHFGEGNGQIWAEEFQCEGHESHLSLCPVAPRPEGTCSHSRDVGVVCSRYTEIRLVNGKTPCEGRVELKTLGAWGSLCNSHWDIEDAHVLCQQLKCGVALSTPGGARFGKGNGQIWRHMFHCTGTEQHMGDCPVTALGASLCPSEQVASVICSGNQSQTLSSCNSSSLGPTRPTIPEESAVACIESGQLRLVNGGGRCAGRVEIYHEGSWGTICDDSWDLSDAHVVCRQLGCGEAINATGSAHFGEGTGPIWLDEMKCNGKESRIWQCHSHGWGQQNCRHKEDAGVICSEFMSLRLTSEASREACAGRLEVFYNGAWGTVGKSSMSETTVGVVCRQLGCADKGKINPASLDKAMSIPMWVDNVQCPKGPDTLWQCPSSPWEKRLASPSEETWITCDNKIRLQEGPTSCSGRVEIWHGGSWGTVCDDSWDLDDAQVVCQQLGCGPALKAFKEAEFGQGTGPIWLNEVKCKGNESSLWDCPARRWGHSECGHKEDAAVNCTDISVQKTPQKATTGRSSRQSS
T2 sequence (Q86VB7 46-1050 limits assumed): as above

fold stronger binding than AB101 parental antibody [1] [fold]	fold increase of affinity against AB101 parental Ab [2] [fold]	fold stronger binding than AB101 parental antibody [3] [fold]	Binder
45			变体1(V1) (antibody, V domains shown) VH: EVQLVESGGGVVQPGRSLRLSCAASGFTFSSYDMHWVRQAPGKGLEWVAVISEDGSNKYNADSVKGRFTISRDNSKNTLYLQMNSLRAEDTAVYYCARENVRPYYDFWSGYSSEYYYYGLDVWGQGTTVTVS VL: not shown
	~3760	27	变体4(V4) (antibody, V domains shown, also called 克隆4) VH: EVQLVESGGGVVQPGRSLRLSCAASGFTFSSYVMHWVRQAPGKGLEWVAVISEDGSNKYNADSVKGRFTISRDNSKNTLYLQMNSLRAEDTAVYYCARENVRPYYDFWSGYSSEYYYYGLDVWGQGTTVTVSS VL: not shown
